According to US20220162261A1 (published 2022):
Where two headings read alike, the source gives them in different places. Numbered stars: 1 amine (or outer) side, 2 acyl side, 3 side chain; on linkers, the order of the positions; unused ones are H or OH. Bridge positions count the residues as written; N and C are the ends. Square brackets hold non-standard residues; d marks the D form. Asp(OMe) = L-aspartic acid beta-methyl ester, COC(=O)C[C@H](N[*:1])C(=O)[*:2]; Phe(3,4-Cl2) = N[C@@H](Cc1ccc(Cl)c(Cl)c1)C(=O)O; Phe(4-tBu) = CC(C)(C)c1ccc(C[C@H](N)C(=O)O)cc1; Phe(2,4-Cl2) = N[C@@H](Cc1ccc(Cl)cc1Cl)C(=O)O; NMeR = CN[C@@H](CCCNC(=N)N)C(=O)O; Pen = CC(C)(S)[C@H](N)C(=O)O; βAla = NCCC(=O)O

B1: SEQ ID NO: 69 (peptide)
peptide: Ac-[Pen][NMeR]S[Asp(OMe)]TL[Pen]WE[dK]-NH2
modifications: disulfide 1-7; also: Biotine, site of attachment not given here
B2: SEQ ID NO: 73 (peptide)
peptide: Ac-[Pen][NMeR]S[Asp(OMe)]TL[Pen]WE[dK]-NH2
modifications: disulfide 1-7; not fully specified (residue 10); printed as (Ac Pen N-Me-R S D(OMe) T L Pen W E k NH2)2 DIG, disulfide Pen-Pen; also: homodimer: two subunits linked by DIG via D-Lys10 side chain
B3: SEQ ID NO: 42 (peptide)
peptide: Ac-[Pen][NMeR]SDTL[Pen][Phe(2,4-Cl2)]E[dK]-NH2
modifications: disulfide 1-7; not fully specified (residue 10); printed as (Ac Pen N-Me-R S D T L Pen F(2,4-diCl) E k NH2)2 DIG, disulfide Pen-Pen; also: dimer, two subunits joined by DIG linker
B4: SEQ ID NO: 144 (peptide)
peptide: cyclo([Pen][NMeR]SDTL[Pen]WE)
modifications: disulfide 1-7
SMILES: CC(C)C[C@@H]1NC(=O)[C@H]([C@@H](C)O)NC(=O)[C@H](CC(=O)O)NC(=O)[C@H](CO)NC(=O)[C@H](CCCNC(=N)N)N(C)C(=O)[C@H]2NC(=O)[C@H](CCC(=O)O)NC(=O)[C@H](Cc3c[nH]c4ccccc34)NC(=O)[C@@H](NC1=O)C(C)(C)SSC2(C)C
B5: SEQ ID NO: 145 (peptide)
peptide: XRSDTLXWE
modifications: Cyclo [Pen N-Me-R S D T L Pen W e]; disulfide Pen-Pen
B6: SEQ ID NO: 151 (peptide)
peptide: Ac-[Pen][NMeR]SDTL[Pen][Phe(4-tBu)]-OH
modifications: disulfide 1-7
SMILES: CC(=O)N[C@@H]1C(=O)N(C)[C@@H](CCCNC(=N)N)C(=O)N[C@@H](CO)C(=O)N[C@@H](CC(=O)O)C(=O)N[C@@H]([C@@H](C)O)C(=O)N[C@@H](CC(C)C)C(=O)N[C@H](C(=O)N[C@@H](Cc2ccc(C(C)(C)C)cc2)C(=O)O)C(C)(C)SSC1(C)C
B7: SEQ ID NO: 206 (peptide)
peptide: Ac-[Pen]RSDTLC[dK]-NH2
modifications: disulfide 1-7
SMILES: CC(=O)N[C@@H]1C(=O)N[C@@H](CCCNC(=N)N)C(=O)N[C@@H](CO)C(=O)N[C@@H](CC(=O)O)C(=O)N[C@@H]([C@@H](C)O)C(=O)N[C@@H](CC(C)C)C(=O)N[C@H](C(=O)N[C@H](CCCCN)C(N)=O)CSSC1(C)C
notes: also called peptide 206
B8: SEQ ID NO: 43 (peptide)
peptide: Ac-[Pen][NMeR]SDTL[Pen][Phe(3,4-Cl2)]E[dK]-NH2
modifications: disulfide 1-7; not fully specified (residue 10); printed as (Ac Pen N-Me-R S D T L Pen F(3,4-diCl) E k NH2)2 DIG, disulfide Pen-Pen; also: dimer, two subunits joined by DIG linker
B9: SEQ ID NO: 52 (peptide)
peptide: H-[βAla][Pen][NMeR]SDTL[Pen]WE-NH2
modifications: disulfide 2-8
SMILES: CC(C)C[C@@H]1NC(=O)[C@H]([C@@H](C)O)NC(=O)[C@H](CC(=O)O)NC(=O)[C@H](CO)NC(=O)[C@H](CCCNC(=N)N)N(C)C(=O)[C@@H](NC(=O)CCN)C(C)(C)SSC(C)(C)[C@@H](C(=O)N[C@@H](Cc2c[nH]c3ccccc23)C(=O)N[C@@H](CCC(=O)O)C(N)=O)NC1=O

Columns and labels:
[1] = molecular target: T1, rh integrin α4β7 (R&D Systems #5397-A30) (human, UniProt P13612 34-970; P26010 20-723); test: competition ELISA vs MAdCAM-1
T1 construct: bought; coated on a nickel coated plate; also called immobilized α4β7; immobilized α4β7 integrin protein

[2] = molecular target: T2, human α4β7 integrin on cells (human, UniProt P13612 34-1032; P26010 20-798); test: RPMI8866 cell adhesion to MAdCAM-1
T2 construct: whole, on cells; also called α4β7 cell (Hu); RPMI8866 cells

[3] = molecular target: T1, rh integrin α4β7 (R&D Systems #5397-A30); test: competition ELISA vs MAdCAM-1; remark: listed apart in the source

| IC50 [1] [nM] | IC50 [2] [nM] | IC50 [3] [nM] | Binder |
| --- | --- | --- | --- |
| > 10 | > 100 |  | B1 |
| ≤ 10 | ≤ 10 |  | B2 |
| ≤ 10 | ≤ 10 |  | B3 |
| 364 | > 10000 |  | B4 |
| 504 | > 10000 |  | B5 |
| > 10 | > 50 |  | B6 |
|  |  | 97 | B7 |
| ≤ 10 | > 10 |  | B8 |
| > 10 | > 100 |  | B9 |
